In test [1] the target is STY3178, a yfdX protein from Salmonella Typhi (Salmonella Typhi (CT18)). In words: SEC.
Test [2] shares this target. In words: NMR relaxation (1D 1H-15N T1 and T2, rotational correlation time).

For orientation: stoichiometry N means the number of molecules, sites or subunits per partner or assembly. For “STY3178, a yfdX protein from Salmonella Typhi (natural protein)”, the stoichiometry N in test [1] and in test [2] was 3 throughout.
